Series [1] concerns the target T1, Rec114(325-428);Mei4(1-90) (Saccharomyces cerevisiae;Saccharomyces cerevisiae) (UniProt P32841+P29467).
T1 sequence 1: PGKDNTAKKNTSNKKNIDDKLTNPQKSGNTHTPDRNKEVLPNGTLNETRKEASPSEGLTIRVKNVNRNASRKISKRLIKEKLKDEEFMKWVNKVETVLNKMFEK
T1 sequence 2: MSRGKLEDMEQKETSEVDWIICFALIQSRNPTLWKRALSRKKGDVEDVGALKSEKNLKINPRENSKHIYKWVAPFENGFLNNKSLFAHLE
Description: EMSA. The settings on record: EMSA: 25 mM Tris-HCl pH 7.4, 100 mM NaCl, 5 ng DNA, 20 min, room temperature; AFM: 25 mM HEPES-NaOH pH 7.4, 5 mM MgCl2, 50 mM NaCl, 10% glycerol, 30 min, RT ….

Series [2] has as its target T2, Rec114(386-428);Mei4N (Saccharomyces cerevisiae;Saccharomyces cerevisiae) (UniProt P32841+P29467).
T2 sequence 1: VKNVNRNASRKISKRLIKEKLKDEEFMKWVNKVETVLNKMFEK
T2 sequence 2: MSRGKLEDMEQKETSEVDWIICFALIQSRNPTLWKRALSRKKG
In words: EMSA. To be noted: EMSA: 25 mM Tris-HCl pH 7.4, 100 mM NaCl, 5 ng DNA, 20 min, room temperature; AFM: 25 mM HEPES-NaOH pH 7.4, 5 mM MgCl2, 50 mM NaCl, 10% glycerol, 30 min, RT …. (In general: In EMSA bound probe runs differently from free probe, usually more slowly.)

Series [3] deals with T3, Rec114(388-428) K399A/R400A;Mei4N K399A;R400A (Saccharomyces cerevisiae;Saccharomyces cerevisiae) (UniProt P32841+P29467).
T3 sequence 1: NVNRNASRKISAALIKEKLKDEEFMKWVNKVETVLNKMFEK
T3 sequence 2: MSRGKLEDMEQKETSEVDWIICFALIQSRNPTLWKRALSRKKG
Description: EMSA. The settings on record: EMSA: 25 mM Tris-HCl pH 7.4, 100 mM NaCl, 5 ng DNA, 20 min, room temperature; AFM: 25 mM HEPES-NaOH pH 7.4, 5 mM MgCl2, 50 mM NaCl, 10% glycerol, 30 min, RT ….

Series [4] addresses T4, Rec114(388-428) K403A/K407A;Mei4N K403A;K407A (Saccharomyces cerevisiae;Saccharomyces cerevisiae) (UniProt P32841+P29467).
T4 sequence 1: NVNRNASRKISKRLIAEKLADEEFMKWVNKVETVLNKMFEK
T4 sequence 2: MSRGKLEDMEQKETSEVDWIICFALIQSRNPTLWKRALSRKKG
In words: EMSA. The settings on record: EMSA: 25 mM Tris-HCl pH 7.4, 100 mM NaCl, 5 ng DNA, 20 min, room temperature; AFM: 25 mM HEPES-NaOH pH 7.4, 5 mM MgCl2, 50 mM NaCl, 10% glycerol, 30 min, RT ….

In series [5] the target is T5, Rec114(388-428) K417A/K424A;Mei4N K417A;K424A (Saccharomyces cerevisiae;Saccharomyces cerevisiae) (UniProt P32841+P29467).
T5 sequence 1: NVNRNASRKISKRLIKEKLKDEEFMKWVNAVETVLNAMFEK
T5 sequence 2: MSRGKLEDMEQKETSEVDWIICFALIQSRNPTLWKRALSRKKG
Description: EMSA. To be noted: EMSA: 25 mM Tris-HCl pH 7.4, 100 mM NaCl, 5 ng DNA, 20 min, room temperature; AFM: 25 mM HEPES-NaOH pH 7.4, 5 mM MgCl2, 50 mM NaCl, 10% glycerol, 30 min, RT ….

Series [6] addresses T6, Rec114(388-428) R395A/K396A;Mei4N R395A;K396A (Saccharomyces cerevisiae;Saccharomyces cerevisiae) (UniProt P32841+P29467).
T6 sequence 1: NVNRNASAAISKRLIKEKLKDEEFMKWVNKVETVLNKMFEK
T6 sequence 2: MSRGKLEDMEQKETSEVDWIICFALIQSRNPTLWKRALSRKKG
In words: EMSA. To be noted: EMSA: 25 mM Tris-HCl pH 7.4, 100 mM NaCl, 5 ng DNA, 20 min, room temperature; AFM: 25 mM HEPES-NaOH pH 7.4, 5 mM MgCl2, 50 mM NaCl, 10% glycerol, 30 min, RT ….

For series [7], the target named is T7, Rec114(388-428);Mei4(13-43) (Saccharomyces cerevisiae;Saccharomyces cerevisiae) (UniProt P32841+P29467).
T7 sequence 1: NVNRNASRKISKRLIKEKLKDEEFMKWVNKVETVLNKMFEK
T7 sequence 2: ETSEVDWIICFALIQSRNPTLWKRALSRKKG
In words: EMSA. To be noted: EMSA: 25 mM Tris-HCl pH 7.4, 100 mM NaCl, 5 ng DNA, 20 min, room temperature; AFM: 25 mM HEPES-NaOH pH 7.4, 5 mM MgCl2, 50 mM NaCl, 10% glycerol, 30 min, RT ….

Series [8] concerns the target T8, Rec114(388-428);Mei4N (Saccharomyces cerevisiae;Saccharomyces cerevisiae) (UniProt P32841+P29467).
T8 sequence 1: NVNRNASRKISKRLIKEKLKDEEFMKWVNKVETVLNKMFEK
T8 sequence 2: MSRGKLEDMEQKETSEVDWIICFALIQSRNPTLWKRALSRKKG
In words: EMSA. To be noted: EMSA: 25 mM Tris-HCl pH 7.4, 100 mM NaCl, 5 ng DNA, 20 min, room temperature; AFM: 25 mM HEPES-NaOH pH 7.4, 5 mM MgCl2, 50 mM NaCl, 10% glycerol, 30 min, RT ….

Series [9] concerns the target T9, Rec114C;Mei4N (Saccharomyces cerevisiae;Saccharomyces cerevisiae) (UniProt P32841+P29467).
T9 sequence 1: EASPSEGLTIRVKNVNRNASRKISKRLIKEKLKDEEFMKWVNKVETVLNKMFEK
T9 sequence 2: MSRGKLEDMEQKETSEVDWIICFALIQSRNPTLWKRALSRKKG
In words: EMSA. The settings on record: EMSA: 25 mM Tris-HCl pH 7.4, 100 mM NaCl, 5 ng DNA, 20 min, room temperature; AFM: 25 mM HEPES-NaOH pH 7.4, 5 mM MgCl2, 50 mM NaCl, 10% glycerol, 30 min, RT ….

Series [10] deals with T10, Rec114C;Mei4N-ybbR (Saccharomyces cerevisiae;Saccharomyces cerevisiae) (UniProt P32841+P29467).
T10 sequence 1: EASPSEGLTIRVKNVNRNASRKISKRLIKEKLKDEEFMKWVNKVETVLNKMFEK
T10 sequence 2: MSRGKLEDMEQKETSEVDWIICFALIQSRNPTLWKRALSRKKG
Description: EMSA. To be noted: EMSA: 25 mM Tris-HCl pH 7.4, 100 mM NaCl, 5 ng DNA, 20 min, room temperature; AFM: 25 mM HEPES-NaOH pH 7.4, 5 mM MgCl2, 50 mM NaCl, 10% glycerol, 30 min, RT ….

Series [11] concerns the target T11, Rec114C;Mei4N-ybbR-LD650 (Saccharomyces cerevisiae;Saccharomyces cerevisiae) (UniProt P32841+P29467).
T11 sequence 1: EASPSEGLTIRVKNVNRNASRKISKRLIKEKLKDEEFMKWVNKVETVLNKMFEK
T11 sequence 2: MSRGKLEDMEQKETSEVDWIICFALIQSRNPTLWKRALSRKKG
Description: EMSA. To be noted: EMSA: 25 mM Tris-HCl pH 7.4, 100 mM NaCl, 5 ng DNA, 20 min, room temperature; AFM: 25 mM HEPES-NaOH pH 7.4, 5 mM MgCl2, 50 mM NaCl, 10% glycerol, 30 min, RT ….

Series [12] addresses T12, mREC114C;mMEI4N (Mus musculus;Mus musculus) (UniProt Q9CWH4+Q8BRM6).
T12 sequence 1: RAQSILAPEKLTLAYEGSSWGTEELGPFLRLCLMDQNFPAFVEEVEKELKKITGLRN
T12 sequence 2: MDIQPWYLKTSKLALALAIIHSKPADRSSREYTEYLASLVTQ
Description: EMSA. To be noted: EMSA: 25 mM Tris-HCl pH 7.4, 100 mM NaCl, 5 ng DNA, 20 min, room temperature; AFM: 25 mM HEPES-NaOH pH 7.4, 5 mM MgCl2, 50 mM NaCl, 10% glycerol, 30 min, RT ….

The target in series [13] is T13, Rec114C;Mei4N (Saccharomyces cerevisiae;Saccharomyces …, UniProt P32841;P29467 375-428;1-43, |).
T13 sequence 1: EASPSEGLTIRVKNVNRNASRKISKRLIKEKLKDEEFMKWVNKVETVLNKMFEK
T13 sequence 2: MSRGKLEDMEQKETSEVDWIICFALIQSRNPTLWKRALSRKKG
Description: EMSA; C50; EMSA: 25 mM Tris-HCl pH 7.4, 100 mM NaCl, 5 ng DNA, 20 min, room temperature; AFM: 25 mM HEPES-NaOH pH 7.4, 5 mM MgCl2, 50 mM NaCl, 10% glycerol, 30 min, RT; optical trap: same buffer plus 5 nM SYTOX Orange, RT. To be noted: protein: recombinant;recombinant; tags: 6xHis-SUMO removed by Ulp1 (tagged chain);6xHis-SUMO removed by Ulp1 when on this chain; chain copies: 2;1; blunt.

The target of series [14] is T13, Rec114C;Mei4N. In words: EMSA; C50; main text gives ~800 nM; EMSA: 25 mM Tris-HCl pH 7.4, 100 mM NaCl, 5 ng DNA, 20 min, room temperature; AFM: 25 mM HEPES-NaOH pH 7.4, 5 mM MgCl2, 50 mM NaCl, 10% glycerol, 30 min, RT; optical trap: same buffer plus 5 nM SYTOX Orange, RT. The settings on record: protein: recombinant;recombinant; tags: 6xHis-SUMO removed by Ulp1 (tagged chain);6xHis-SUMO removed by Ulp1 when on this chain; chain copies: 2;1; blunt.

Consider “ATCTGGCTCGCCTGACGGGATGCGACGAATTTTCGCCGCCCCATAAAGTACGCCCACGACTCGTTCGCACTGGCCCGTGCCGTGGAGTAGCTCATCTGGGCGTAATTCCGGGAAAGCTGCTCATACGAGACACCCAGCCCGGCAGCGATAT (double strand) [150-bp DNA]”, for which the K half in [1] amounted to 90 nM; in [2], 110 nM; in [3] it was 2000 nM; in [4], 1000 nM; in series [5] it was 900 nM; in [6], 1000 nM. Moreover, the K half in series [7] was 100 nM; in [8] it was 110 nM; in [9], 90 nM; in series [10], 90 nM; in series [11], 90 nM. Moreover, the binding result in [12] was “binds more weakly”.

B1: dsDNA80 (dsDNA)
DNA 1: CTAGTATAGAGCCGGCGCGCCATGTCTAGATAGCGTTAGGTCTGCCGAATAGTACTACTCGGATCCCGAGCGAACCACGC
DNA 2: GCGTGGTTCGCTCGGGATCCGAGTAGTACTATTCGGCAGACCTAACGCTATCTAGACATGGCGCGCCGGCTCTATACTAG
In the case of B1, the “apparent K (half saturation)” value with Rec114C;Mei4N [13] was determined as 100 ± 20 nM.

B2: dsDNA20 (dsDNA)
DNA 1: AAAGATGTCCTAGCAATGTA
DNA 2: TACATTGCTAGGACATCTTT
On to B2, for which the “apparent K (half saturation)” value with Rec114C;Mei4N [14] worked out at 600 ± 100 nM.

The values above are taken from paper PMC10393192, “Structure and DNA-bridging activity of the essential Rec114–Mei4 trimer interface”.
